Measured values taken from the RNAGym collection of RNA variant scans (doi:10.7554/elife.90254).

B1: OR4K15 (parent)
chain: GUUAACGGUCAUAGGCCAUGGAAACUAGGAGCACCAUUUCGCUGCCAGUGAAGAAAUGAACAAAGAAAAUCUGGGCCAGGCAGGCAUCAAAAGAAAUAGUCUUGCGCUCAACCAGAAAGUCUGUAAUCAUUUUAAGGGUA

Variants of: B1
Assay: self-cleavage, relative activity (ratio to wild type); higher = more cleavage; in vitro, sequencing; the parent is a self-cleaving ribozyme

Variant | self-cleavage
GUUAACGGUCAUAGGCCAUGGAAACUAGGAGCACCAUUUCGCUGCCAGUGAAGAAAUGAACAAUGAAAAUCUGGGCCAGGCAGGCAUCAAAAGAAAUAGUCUUGCGCUCAACCGGAAAGUCUGUAAUCAUUUUAAGGGUA [A64U A114G] | 0.46
GUUAACGGUCAUAGGCCAUGGAAACUAGGAGCACCAUUUCGCUGCCAGUGAAGAAAUGAACAAAGAAAAUCUGGGCCAGGCAGGCAUCAAGAGAAAUAGUCUUGCGCUCAACCAGAAAGUCUGUAAUCGUUUUAAGGGUA [A91G A129G] | 0.58
GUUAACGGCCAUAGGCCAUGGAAACUAGGAGCACCAUUUCGCUGCCAGUGAAGAAAUGAACAAAGAAAAUCUGGGUCAGGCAGGCAUCAAAAGAAAUAGUCUUGCGCUCAACCAGAAAGUCUGUAAUCAUUUUAAGGGUA [U9C C76U] | 0.15
GUUAACGGUCAUAGGCCAUGGAAACCAGGAGCACCAUUUCGCUGCCAGUGAAGAAAUGAACAAAGAAAAUCUGGGCCAGGCAGGCAUCAAAAGAAAUAGUCUUGCGCUCAACCAGAAAGUCUGUAAUCAUCUUAAGGGUA [U26C U131C] | 1.04
GUUAACGGUCAUAGGCCAUGGAAACUAGGGGCACCAUUUCGCUGCCAGUGAAGAAAUGAACAAAGAAAAUCUGGGCCAGGCAGGCAUCAAAAGAAAUAGUCUUGCGCUCAACCCGAAAGUCUGUAAUCAUUUUAAGGGUA [A30G A114C] | 0.07
GUUAACGGUCAUAGGCCAUGGAAACUAGGAGUACCAUUUCGCUGCCAGUGAAGAAAUGAACAAAGAAAAUCUGGGCCAGGCAGGCAUCAAAAGAAAUAGUCUUGCGCUCAGCCAGAAAGUCUGUAAUCAUUUUAAGGGUA [C32U A111G] | 0.01
GUUAACGGUCAUAGGCCAUGGAAGCUAGGAGCACCAUUUCGCUGCCAGUGAAGAAAUGAACAAAGAAAAUCUGGGCCAGGCAGGCAUCAAAAGAAAUAGUCUUGCGCUCAACCAGAAAGUCUGUAAUUAUUUUAAGGGUA [A24G C128U] | 0.76
GUUAACGGUCAUAGGCCAUGGAAACUAGGAGCACCAUUCCGCUGCCAGUGAAGAAAUGAACAAAGAAAAUCUGGGCCAGGCAGGCAUCAAAAGAGAUAGUCUUGCGCUCAACCAGAAAGUCUGUAAUCAUUUUAAGGGUA [U39C A95G] | 1.53
GUUAACGGUCAUAGGCCAUGGAAACUAGGAGCACCAUUUCGCUGCCAGUGAAGAAAUGAACAAAGAAAAUCUGGGCCAGGCGGGCAUCAAAAGAAAUAGUCUUGCGCUCAACCAGAAAGUCUGUAAUCAUUUCAAGGGUA [A82G U133C] | 0.72
GUUAACGGUCAUAGGCCAUGGAAACUAGGAGCACCAUUUCGCUGCCGGUGAAGAAAUGAACAAAGAAAAUCUGGGCCAGGCAGGCAUCAAAAGAAAUAGUCUUGCGCUCAACCAGAAAGACUGUAAUCAUUUUAAGGGUA [A47G U120A] | 1.21
GUUAACGGUCAUAGGCCAUGGAAACUAGGAGCACCAUUUCGCUGCCAGUGAAGAGAUGAACAAAGAAAAUCUGGGCCAGGCAGGCAUCAAAAGAAAUAGUCUUGCGCUCAACCAGAAAGUCUGUAAUCAUUCUAAGGGUA [A55G U132C] | 1.46
GUUAACGGUCAUAGGCCAUGGAAACUAGGAGCACCAUUUCGCUGCCAGUGAAGACAUGAACAAAGAAAAUCUGGGCCAGGCAGGCAUCAAAAGAAAUAGUCUUGCGCUCGACCAGAAAGUCUGUAAUCAUUUUAAGGGUA [A55C A110G] | 1.02
GUUAACGGUCAUAGGCCAUGGAAACUAGGAGCACCAUUUCGCUGCCAGUGAAGAAAUGAACAAAGAAAAUCUGGGCCAGGCAGGCAUCAAAAGAAAUAGUCUUGCGCUCAUCCAGAGAGUCUGUAAUCAUUUUAAGGGUA [A111U A117G] | 0.06
GUUAACGGUCAUAGGCCAUGGAAACUAGGAGCACCAUCUCGCUGCCAGUGAAGAAAUGAACAAAGAAAAUCUGGGCCAGGCAGGCAUAAAAAGAAAUAGUCUUGCGCUCAACCAGAAAGUCUGUAAUCAUUUUAAGGGUA [U38C C88A] | 1.74
GUUAACGGUCAUAGGCCAUGGAAACUAGGGGCACCAUUUCGCUGCCAGUGAAGAAAUGAACAAAGAAAAUCUGGGCCAGGCAGGCAUCAAAAGAAAUAGUCUUGCGCUCAACCAGAAAGUCUGUAAUCACUUUAAGGGUA [A30G U130C] | 0.6
GUUGACGGUCAUAGGCCAUGGAAACUAGGAGCACCAUCUCGCUGCCAGUGAAGAAAUGAACAAAGAAAAUCUGGGCCAGGCAGGCAUCAAAAGAAAUAGUCUUGCGCUCAACCAGAAAGUCUGUAAUCAUUUUAAGGGUA [A4G U38C] | 1.15
GUUAACGGUCAUAGGCCAUGGAAACUAGGAGCACCAUUUCGCUGCCAGCGAAGAAAUGAACAAAGAAAAUCUGGGCCAGGCAGGCAUCAAAAGGAAUAGUCUUGCGCUCAACCAGAAAGUCUGUAAUCAUUUUAAGGGUA [U49C A94G] | 1.44
GUUAACGGUCAUAGGCCAUGGAAACUAGGAGCACCAUUUCGCUGCCAGUGAAGAAAUUAACAAAGAAAAUCUGGGCCAGGCAGGCAUCAAAAGAAAUAGUCUUGCGCUCAACCAGAAAGUCUGUAGUCAUUUUAAGGGUA [G58U A126G] | 0.8
GUAAACGGUCAUAGGCCAUGGAAACUGGGAGCACCAUUUCGCUGCCAGUGAAGAAAUGAACAAAGAAAAUCUGGGCCAGGCAGGCAUCAAAAGAAAUAGUCUUGCGCUCAACCAGAAAGUCUGUAAUCAUUUUAAGGGUA [U3A A27G] | 1.25
GUUAACGGUCAUAGGCCAUGGAAACUAGGAGCACCAUUUCGCUGCCAGUGAAGAAAUGAACAAAGAAAAUCUGGGCCAGGCAGGCAUCAAAAGAAAUAGUCUUGCGCUAAACCAGAAAGUCUGUAAUCAUUUUAAGGGUG [C109A A140G] | 0.47
GUUAGCGGUCAUAGGCCAUGGAAACUAGGAGCACCAUUUCGCUGCCAGUGAAGUAAUGAACAAAGAAAAUCUGGGCCAGGCAGGCAUCAAAAGAAAUAGUCUUGCGCUCAACCAGAAAGUCUGUAAUCAUUUUAAGGGUA [A5G A54U] | 0.83

Variant | self-cleavage
GUUAACGGUCAUAGGCCAUGGAAACUAGGAGCACCAUUUCGCUGCCAGUGAAGGAAUGAACAAAGAAAAUCUGGGCCAGGCAGGCAUCAAAAGAAAUAGUCUUGCGCUCAACCAGAAAGUCUGUAAUCAAUUUAAGGGUA [A54G U130A] | 1.11
GUUAACGGUCAUAGGCCAUGGAAACUAGGAGCACCAUUUCGCUGCCAGUGAAGAAAUGAGCAAAGAAAACCUGGGCCAGGCAGGCAUCAAAAGAAAUAGUCUUGCGCUCAACCAGAAAGUCUGUAAUCAUUUUAAGGGUA [A60G U70C] | 0.8
GUUAACGGUCAUAGGCCAUGGAAACUAGGAGCACCAUUUCGCUGCCAGUGAAGAAAUGAACAAAGAAAAUCUGGUCCAGGCAGGCAUCAAAAGAAAUAGUCUUGCGCUCAACCAGAGAGUCUGUAAUCAUUUUAAGGGUA [G75U A117G] | 0.15
GUUAACGGUCAUAGGCCAUGGAAACUAGGAGCACCAUUUCGCUGCCAGUGAAGAAAUGAACAAAGAAGAUCUGGGCCAGGCGGGCAUCAAAAGAAAUAGUCUUGCGCUCAACCAGAAAGUCUGUAAUCAUUUUAAGGGUA [A68G A82G] | 0.62
GUUAACGGUCAUAGGCCAUGGAAACUAGGAGCACCAUUUCGCUGCCAGUGAAGGAAUGAACAAAGAAAAUCUGGGCCAGGCAGGCAUCAAAAGAAAUAGUCUUGCGCUCAACCAGAAAGUCUGUAUUCAUUUUAAGGGUA [A54G A126U] | 0.42
GUUAACGGUCAUAGGCCAUGGAAACUAGGAGCACCAUUUCGCUGCCAGUGAAGAAAUGCGCAAAGAAAAUCUGGGCCAGGCAGGCAUCAAAAGAAAUAGUCUUGCGCUCAACCAGAAAGUCUGUAAUCAUUUUAAGGGUA [A59C A60G] | 0.56
GUUAUCGGUCAUAGGCCAUGGAAACUAGGAGCACCAUUUCGCUGCCAGUGAAGAAAUGAACAAAGAAAAUCUGGGCCAGGCAGGCAUCAAAAGAAACAGUCUUGCGCUCAACCAGAAAGUCUGUAAUCAUUUUAAGGGUA [A5U U97C] | 0
GUUAACGGUCAUAGGCCAUGGAAACUAGGAGCACCAUUUCGCUGCCAGUGAAGAAAUGAACAAAGAAAAUCUGGGCCGGGCAGGCAUCAAAAGAAAUAGUCUUGCGCUCAACCAGAAAGUCAGUAAUCAUUUUAAGGGUA [A78G U122A] | 0.13
GUUAGCGGUCAUAGGCCAUGGAAACUAGGAGCACCAUUUCGCUGCCAGUGAAGAAAUGAACAAAGAAAAUCUGGGCCAGGCAGGCAUCAAAAGAAAUAGUCUUGCGCUCAACCAGAAAGUCUGUAAUCAUUUUAAGGGCA [A5G U139C] | 1.1
GUUAACGGUCAUAGGCCAUGGAAACUAGGAGCACCAUUUCGCUGCCAGUGAAGAAAUGGACAAAGAAAAUCUGGGCCAGGCAGGCAUCAAAAGAAAUAGUCUUGCGCUCAACCAGAUAGUCUGUAAUCAUUUUAAGGGUA [A59G A117U] | 0.95
GUUAACGGUCAUAGGCCUUGGAAACUAGGAGCACCAUUUCGCUGCCAGUGAAGAAAUGAACAAAGAAAAUCUGGGCCAGGCAGGCAUCAAGAGAAAUAGUCUUGCGCUCAACCAGAAAGUCUGUAAUCAUUUUAAGGGUA [A18U A91G] | 1.16
GUUAACGGUCAUAGGCCGUGGAAACUAGGAGCACCAUUUCGCUGCCAGUGAAGAAAUGAACAAAGAAAAUCUGGGCCAGGCAGGCAUCAAAAGAAAUAGUCUUGCGCUCAACCAGAUAGUCUGUAAUCAUUUUAAGGGUA [A18G A117U] | 1.01
GUUAACGGUCUUAGGCCAUGGAAACUAGGGGCACCAUUUCGCUGCCAGUGAAGAAAUGAACAAAGAAAAUCUGGGCCAGGCAGGCAUCAAAAGAAAUAGUCUUGCGCUCAACCAGAAAGUCUGUAAUCAUUUUAAGGGUA [A11U A30G] | 1.23
GUUAACGGUCAUAGGCCAUGGAAACUAGGAGCACCAUUUCGCUGCCAGUGAAGAAAUGAACAAAGAAAAUCUAGGCCAGGCAGGCAUCAAAAGAAAUAGUCUUGCGCUCAACCAGAGAGUCUGUAAUCAUUUUAAGGGUA [G73A A117G] | 0.15
GUUAACGGUCAUAGGCCAUGGUAACUAGGAGCACCAUUUCGCUGCCAGUGAAGAAAUGAACAAAGAAAAUCUGGGCCAGGCAGGCAUCAAAAGAAAUAGUCUUGCGCUCAACCAGAGAGUCUGUAAUCAUUUUAAGGGUA [A22U A117G] | 1.06
GUUAACGGUCAUAGGUCAUGGAAACUAGGAGCACCAUUUCGCUGCCAGUGAAGAAAUGAACAAAGAAAAUCUGGGCCAGGCAGGCAUCAAAAGAAAUAGUCCUGCGCUCAACCAGAAAGUCUGUAAUCAUUUUAAGGGUA [C16U U102C] | 2.01
GUUAACGGUCAUAGGCCAUGGAAACUAGGAGCACCAUUUCGCUGCCAGUGAAGAAAUGAACCAAGAAAAUCUGGGCCAGGCAGGCAUCAAAAGAAAUAGUCUUGCGCACAACCAGAAAGUCUGUAAUCAUUUUAAGGGUA [A62C U108A] | 0.02
GUUAACGGUCAUAGGCCAUGGAAACUAGGAGCACCACUUCGCUGCCAGUGAAGAAAUGAACAAAGGAAAUCUGGGCCAGGCAGGCAUCAAAAGAAAUAGUCUUGCGCUCAACCAGAAAGUCUGUAAUCAUUUUAAGGGUA [U37C A66G] | 1.73
GUUAACGGUCAUAGGCCAUGGAAACUAGGAGCACCAUUUCGCUGCCAGUUAAGAAAUGAACAAAGAAAAUCUGGGCCAGGCAGGCAUCAAAAGAAAUAGUCUUGCGCUCAACCAGAAAGUCUGAAAUCAUUUUAAGGGUA [G50U U124A] | 0.91
GUUAACGGUCAUAGGCCAUGGAAACUAGGAGCACCAUUUCGCUGCCAGUGAAGAAAUGAUCAAAGAAAAUCUGGGCCAGGCAGGCAUCAAAAGAAAUAGUCUUGCGCUCAACCAGAAAGUCUGUAAUUAUUUUAAGGGUA [A60U C128U] | 0.44
